From article PMC6128619, “Allosteric Activation Shifts the Rate-Limiting Step in a Short-Form ATP Phosphoribosyltransferase” (Biochemistry, 2018)
Like-named read-outs stand apart in the source and are kept apart here.

T1: PaHisGS (short-form ATP phosphoribosyltransferase catalytic subunit) (Psychrobacter arcticus, UniProt Q4FQF7)
T1 construct: gene hisG
T1 sequence (Q4FQF7 1-231): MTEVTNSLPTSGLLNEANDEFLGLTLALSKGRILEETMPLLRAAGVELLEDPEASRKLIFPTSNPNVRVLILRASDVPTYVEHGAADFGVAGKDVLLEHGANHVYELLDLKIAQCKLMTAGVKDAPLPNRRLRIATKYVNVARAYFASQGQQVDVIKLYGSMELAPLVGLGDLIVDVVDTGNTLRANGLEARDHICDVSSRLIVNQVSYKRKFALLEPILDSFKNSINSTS

B1: PaATPPRT (Psychrobacter arcticus 273-4) (protein)
chain: MTEVTNSLPTSGLLNEANDEFLGLTLALSKGRILEETMPLLRAAGVELLEDPEASRKLIFPTSNPNVRVLILRASDVPTYVEHGAADFGVAGKDVLLEHGANHVYELLDLKIAQCKLMTAGVKDAPLPNRRLRIATKYVNVARAYFASQGQQVDVIKLYGSMELAPLVGLGDLIVDVVDTGNTLRANGLEARDHICDVSSRLIVNQVSYKRKFALLEPILDSFKNSINSTS
notes: hetero-octamer of four HisGS and four HisZ
B2: PaHisGS (short-form ATP phosphoribosyltransferase catalytic subunit) (Psychrobacter arcticus 273-4) (protein)
chain: MTEVTNSLPTSGLLNEANDEFLGLTLALSKGRILEETMPLLRAAGVELLEDPEASRKLIFPTSNPNVRVLILRASDVPTYVEHGAADFGVAGKDVLLEHGANHVYELLDLKIAQCKLMTAGVKDAPLPNRRLRIATKYVNVARAYFASQGQQVDVIKLYGSMELAPLVGLGDLIVDVVDTGNTLRANGLEARDHICDVSSRLIVNQVSYKRKFALLEPILDSFKNSINSTS

Assays:
[1] = target: T1, PaHisGS (short-form ATP phosphoribosyltransferase catalytic subunit); assay: steady-state kinetics, initial velocity patterns, […] NMR of turnover (no ITC or DSF signal without PRPP); type: biochemical
[2] = target: T1, PaHisGS (short-form ATP phosphoribosyltransferase catalytic subunit); assay: ITC (single-site model, […]); DSF Tm shift +[…] °C; type: binding
[3] = target: T1, PaHisGS (short-form ATP phosphoribosyltransferase catalytic subunit); assay: […] NMR of product formation and steady-state kinetics (alternative substrate, with PRPP); type: biochemical
[4] = target: T1, PaHisGS (short-form ATP phosphoribosyltransferase catalytic subunit); assay: steady-state inhibition kinetics, absorbance at […] nm (IC50 […]; Ki […] vs PRPP, […] vs ATP); type: biochemical
[5] = substrate: Nc1ncnc2c1ncn2[C@@H]1O[C@H](COP(=O)(O)OP(=O)(O)OP(=O)(O)O)[C@@H](O)[C@H]1O; assay: purified protein, by the assay type; parameters: steady-state substrate saturation kinetics with Mg2+, Michaelis-Menten fit
From the text: (§1) Replacement of Mg^2+ by Mn^2+ is a common strategy in enzymology,[36] having been employed to uncover rate-limiting steps in reactions involving stabilization of phosphate groups.[37] HisGL ATPPRTs have been reported to have their activities either unaltered or decreased by changing the divalent metal in the reaction from the physiological Mg^2+ to Mn^2+, but no mechanistic inference has been drawn.[17],[38] […] Mn^2+ led to 2.6- and 11-fold increases in PaHisGSkcat and kcat/KM^ATP, respectively, as compared with Mg^2+. The change in kcat/KM^ATP was driven in large part by a reduction in KM^ATP. LC-MS analysis of the PaHisGS reaction with Mn^2+ confirmed the same product, PRATP, was being formed (Figure S5).  Figure 5 Steady-state kinetics with Mg^2+ (green) and Mn^2+ (blue). Saturation curves varying either PRPP or ATP concentration with saturating concentration of the cosubstrate for (A and B) PaHisGS and (C and D) PaATPPRT. Data points are mean ± SE, and lines are data fitting to eq 3. Kinetic and DSF data were analyzed by the nonlinear regression function of SigmaPlot 13 (SPSS Inc.). Data points and error bars in graphs are represented as mean ± standard error, and kinetic and equilibrium constants are presented as mean ± fitting error. Initial rate data with varying concentrations of PaHisZ were fitted to eq 1. The concentration of PaATPPRT at any concentration of PaHisGS and PaHisZ was calculated according to eq 2. Substrate saturation data were fitted to eq 3. Inhibition data at fixed substrate concentrations were fitted to eq 4, and competitive inhibition data were fitted to eq 5. Initial velocity patterns were fitted to eq 6, and pre-steady-state kinetics under multiple-turnover conditions was fitted to eq 7. In eqs 1–7, v is the initial rate, Vmax is the maximal velocity, G is the concentration of PaHisGS, Z is the concentration of PaHisZ, KD is the equilibrium dissociation constant, PaATPPRT is the concentration of PaHisGS-PaHisZ complex, S is the concentration of the varying substrate, kcat is the steady-state turnover number, KM is the apparent Michaelis constant, ET is total enzyme concentration, vi is the initial rate in the presence of inhibitor, IC50 is the half-maximal inhibitory concentration, Ki is the inhibitor dissociation constant, A and B are the first and second substrates to bind to the enzyme, respectively, Ka and Kb are their respective Michaelis constants, Kia is the apparent dissociation constant for the complex between enzyme and substrate A when the concentration of B approaches zero, t is time, P(t) is product concentration at time t, A0 is the amplitude of the burst phase, and kburst is the first-order rate constant of product formation in the burst phase. DSF thermal denaturation data were fitted to eq 8,[32] where FU is fraction unfolded, T is the temperature in °C, Tm is the melting temperature, c is the slope of the transition region, and LL and UL are folded and unfolded baselines, respectively. [drawing 1] 1 [drawing 2] 2 [drawing 3] 3 [drawing 4] 4 [drawing 5] 5 [drawing 6] 6 [drawing 7] 7 [drawing 8] 8

[6] = substrate: O=P(O)(O)OC[C@H]1O[C@H](OP(=O)(O)OP(=O)(O)O)[C@H](O)[C@@H]1O; assay: purified protein, by the assay type; parameters: steady-state substrate saturation kinetics with Mg2+, Michaelis-Menten fit
From the text: as §1

[7] = substrate: Nc1ncnc2c1ncn2[C@@H]1O[C@H](COP(=O)(O)OP(=O)(O)OP(=O)(O)O)[C@@H](O)[C@H]1O; assay: purified protein, by the assay type; parameters: steady-state kinetics, spectrophotometric PRATP formation, substrate saturation fitted for KM
Experimental: as §1, with “For a quantitative comparison of the reactions with ATP and ADP, steady-state kinetic analysis of the reaction with either substrate was carried out (Figure 4) and kinetic parameters are summarized in Table S3. […] Replacement” for “Replacement”, “S5).” for “S5).  Figure 5 Steady-state kinetics with Mg^2+ (green) and Mn^2+ (blue). Saturation curves varying either PRPP or ATP concentration with saturating concentration of the cosubstrate for (A and B) PaHisGS and (C and D) PaATPPRT. Data points are mean ± SE, and lines are data fitting to eq 3.”

[8] = substrate: O=P(O)(O)OC[C@H]1O[C@H](OP(=O)(O)OP(=O)(O)O)[C@H](O)[C@@H]1O; assay: purified protein, by the assay type; parameters: steady-state kinetics, spectrophotometric PRATP formation, substrate saturation fitted for KM
Experimental: as §1, with “For a quantitative comparison of the reactions with ATP and ADP, steady-state kinetic analysis of the reaction with either substrate was carried out (Figure 4) and kinetic parameters are summarized in Table S3. […] Replacement” for “Replacement”, “S5).” for “S5).  Figure 5 Steady-state kinetics with Mg^2+ (green) and Mn^2+ (blue). Saturation curves varying either PRPP or ATP concentration with saturating concentration of the cosubstrate for (A and B) PaHisGS and (C and D) PaATPPRT. Data points are mean ± SE, and lines are data fitting to eq 3.”

| Molecule | Km [7] [µM] | kcat [7] [s⁻¹] | kcat/Km [7] [M⁻¹ s⁻¹] | Km [8] [µM] | kcat [8] [s⁻¹] | kcat/Km [8] [M⁻¹ s⁻¹] | also measured |
| --- | --- | --- | --- | --- | --- | --- | --- |
| Nc1ncnc2c1ncn2[C@@H]1O[C@H](COP(=O)(O)OP(=O)(O)OP(=O)(O)O)[C@@H](O)[C@H]1O [ATP] | – | – | – | – | – | – | steady-state kinetics, initial velocity patterns, 31P NMR of turnover (no ITC or) [1]: once saturated PaHisGS turns over ATP and ADP just as effectively |
| O=P(O)(O)OC[C@H]1O[C@H](OP(=O)(O)OP(=O)(O)O)[C@H](O)[C@@H]1O [PRPP] | – | – | – | – | – | – | Kd [2]: 12 ± 2 µM |
| Nc1ncnc2c1ncn2[C@@H]1O[C@H](COP(=O)(O)OP(=O)(O)O)[C@@H](O)[C@H]1O [ADP] | – | – | – | – | – | – | 31P NMR of product formation and steady-state kinetics (alternative substrate, w) [3]: establishing that ADP can replace ATP as a substrate for PaHisGS |
| Nc1ncnc2c1ncn2[C@@H]1O[C@H](COP(=O)(O)O)[C@@H](O)[C@H]1O [AMP] | – | – | – | – | – | – | Ki [4]: 25 ± 5 µM |
| B1 | 190 ± 30 | 2.1 ± 0.1 | 11100 ± 2000 | 280 ± 60 | 2.1 ± 0.1 | 7500 ± 2000 | Km [5]: 720 ± 90 µM; kcat [5]: 2.7 ± 0.1 s⁻¹; kcat/Km [5]: 3800 ± 500 M⁻¹ s⁻¹; Km [6]: 430 ± 60 µM; kcat [6]: 2.7 ± 0.1 s⁻¹; kcat/Km [6]: 6000 ± 900 M⁻¹ s⁻¹ |
| B2 | 300 ± 50 | 0.39 ± 0.05 | 1300 | 600 ± 200 | 0.39 ± 0.05 | 700 ± 200 | – |
